# Where a chain is given by its changes, count along the chain named.
# B1: CS37 scFv (31G9 VH/CS37 VL) (scFv, V domains shown)
# VH: QVQLVQSGGGVVQPGRSLRLSCAASGFTFSSYGMHWVRQAPGKGLEWVAVISYDGSIKYYADSVKGRFTISRDNSKNTLYLQMNSLRAEDTAVYYCARTGEYSGYDTSGVELWGQGTTVTVSS
# VL: EIVLTQSPSSLSASVGDRVTITCRASQGIGDDLGWYQQKPGKAPILLIYGTSTLQSGVPSRFSGSGSGTDFTLTINSLQPEDFATYYCLQDSNYPLTFGGGTRLEIK
# notes: not shown: scFv linker, domain order and tag (on phage: the pCANTAB6 gene III fusion); WO97/13844 is cited for CS37
# B2: JT182 scFv (JT182 VH/CS37 VL) (scFv, V domains shown)
# VH: B1 VH with Q6E, G44E, S108P, G109A, V110S, E111P, L112D
# VL: B1 VL
# notes: used as his-prep; not shown: scFv linker, domain order and His tag
# B3: SL15S scFv (SL15 VH/SL15S VL) (scFv, V domains shown)
# VH: B1 VH with Q1E, Q6E, G44E, S108D, G109P, V110Q, E111Y, L112S
# VL: B1 VL with A25S
# notes: soluble scFv was purified by IMAC ('his-preps') and FPLC; also called CAT-191; CAT 191; not shown: scFv linker, domain order and His/other tag (on phage: the pCANTAB6 gene III fusion)
# Key:
# [1] = target: T1, Recombinant human TGFβ1 (active TGFβ1) (human, UniProt P01137 279-390); experiment: radioreceptor assay (RRA): scFv inhibits [125I]TGFβ1 binding to A549 cells; approx IC50
# T1 construct: mature; Recombinant human TGFβ1 from R&D Systems; also called TGFb1
# T1 sequence (P01137 279-390 limits assumed): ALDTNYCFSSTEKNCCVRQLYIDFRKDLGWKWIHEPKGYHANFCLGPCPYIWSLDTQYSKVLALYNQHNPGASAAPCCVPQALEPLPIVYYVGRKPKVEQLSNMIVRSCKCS
# Text: (§1) The scFv fragments were subsequently tested for their ability to neutralise binding of ¹²⁵I-TGFβ₁ to A549 cells in a radioreceptor binding assay (RRA), using the protocol described in Example 3 (see below). For the RRA, individual clones were expressed as soluble scFv and subsequently purified from periplasmic preparations by immobilised metal affinity chromatography (IMAC) followed by fractionation of monomeric scFv by gel filtration FPLC on a Superdex 75 column (Pharmacia).
# (§2) A549 cells were seeded into 24-well plates at 2×10⁵ cells per well for 24 hours in order to achieve >90% confluency. Immediately before the assay, monolayers were washed twice with buffer (1:1 DMEM:Hams-F12) and 0.5 ml assay buffer (1:1 DMEM:Hams F12+0 1% BSA) was added. Two or three-fold serial dilutions of antibodies were prepared in assay buffer and added to an equal volume of 40 pM [¹²⁵I]TGFβ₁ in assay buffer.
# [2] = target: T2, Recombinant human latent TGFβ1 (human, UniProt P01137 30-278; P01137 279-390); experiment: radioreceptor assay and TF1 proliferation assay in the presence of latent TGFβ1
# T2 construct: domain: latency associated peptide;mature; From R&D Systems
# T2 sequence (P01137 30-278 limits assumed, chain 1 of 2): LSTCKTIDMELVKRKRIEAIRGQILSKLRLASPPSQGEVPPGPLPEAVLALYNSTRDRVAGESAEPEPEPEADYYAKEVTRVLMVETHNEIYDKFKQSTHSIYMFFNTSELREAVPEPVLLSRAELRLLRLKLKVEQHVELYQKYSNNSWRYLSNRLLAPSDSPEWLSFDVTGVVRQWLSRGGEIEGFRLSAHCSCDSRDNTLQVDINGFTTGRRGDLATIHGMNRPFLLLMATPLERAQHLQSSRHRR
# T2 sequence (P01137 279-390 limits assumed, chain 2 of 2): as the sequence (P01137 279-390 limits assumed) above
# [3] = target: T1, Recombinant human TGFβ1 (active TGFβ1); experiment: radioreceptor assay: inhibition of [125I]TGFβ1 binding to A549 cells; reference CS37 scFv
# Text: as §1, §2
# [4] = target: T1, Recombinant human TGFβ1 (active TGFβ1); experiment: radioreceptor assay, his-preps of scFv (FIG. 2); reference JT182 scFv
# Description: as §2
# Purified preparations of SL15S scFv, SL15A IgG4, SL15S IgG4 and Mab ID.11.16 (Genzyme mAb) were also analysed (FIG. 3).
Binder,IC50 [1],binding result [2],fold better than CS37 (IC50 in the RRA) [3],fold more active than JT182 scFv [4]
B1,10 to 15 nM,,,
B2,0.5 to 1 nM,,,
B3,~0.1 nM,no binding,≥ 100 fold,10 fold

# From patent US20030064069A1 (CAMBRIDGE ANTIBODY TECHNOLOGY, published 2003)
